Experimental data published in article PMC4161314.
Several values for one entry are separate records, joined by “and”; a condition that tells them apart may be missing. Equal values may be shown once.

Target: 20S proteolytic core of the proteasome, mouse liver (mouse (endogenous in mouse liver)) (UniProt O55234)
Assay: negative-stain electron microscopy; proteasomes co-purified with polyubiquitin conjugates on GstUBD beads, released at 37°C for 7 minutes, stained with 2% uranyl acetate; visual classification of side views, WT and PiZ samples

Sequence of UniProt O55234 (O55234 whole entry, looked up): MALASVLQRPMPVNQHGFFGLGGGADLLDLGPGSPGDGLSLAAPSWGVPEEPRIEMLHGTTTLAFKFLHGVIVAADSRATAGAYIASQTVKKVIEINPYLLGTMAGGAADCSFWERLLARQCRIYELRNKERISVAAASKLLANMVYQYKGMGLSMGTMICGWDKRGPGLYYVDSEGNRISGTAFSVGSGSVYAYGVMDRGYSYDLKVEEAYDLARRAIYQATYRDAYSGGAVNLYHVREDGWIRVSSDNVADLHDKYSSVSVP

percent of proteasomes with at least one 19S cap: 93% and 90%
Substance: 19S activator of the proteasome, mouse liver (from UniProt P62334 1-389) (complex)
